Measured values as given in patent publication US10967068B2, “Stability-modulating linkers for use with antibody drug conjugates” (priority 2014, dated 2021).
*1 amine or outer side, *2 acyl side, *3 side chain or, on linkers, in order; H or OH if unused. Where a SMILES comes first, the peptide text is derived from it. [ ]: non-standard residue; d: D form. The star is where a group is joined. Dolaproine = CO[C@@H]([C@@H]1CCCN1)[C@@H](C)C(=O)O; Acetyl(2-(4-imidazolyl)) = O=C(Cc1c[nH]cn1)*; Dil = CC[C@H](C)[C@H](NC)[C@@H](CC(=O)O)OC; Imidazole4carbonyl = O=C(c1cnc[nH]1)*; PABC = O=C(OCc1ccc(N[*:1])cc1)[*:2]; Doe = c1ccc(C[C@H](N*)c2nccs2)cc1; Cit = NC(=O)NCCC[C@H](N)C(=O)O; Isobutyryl = CC(C)C(=O)*; PhAc = O=C(Cc1ccccc1)*; Me2Gly = CN(C)CC(=O)*; Aib = CC(C)(N)C(=O)O; CO = O=C([*:1])[*:2]; Piv = CC(C)(C)C(=O)*; Glycolyl = O=C(CO)*; Sar = CNCC(=O)O

Assay: In Vitro Stability Assay—Mouse Plasma
Type: in vitro ADME
Details: for Conjugate stability (%): % DAR remaining after plasma 3 or 4.5 days; for DAR: before plasma incubation
Protocol: 100-200 ug of ADC were incubated in mouse plasma (provided by Bioreclamation) supplemented with 1×PBS to the final ADC concentration of 0.125 mg/mL. Following incubation for 3-7 days, samples were diluted with an equal volume of 1×PBS, and ADCs were isolated using Trop2 antigen coupled to CNBr-activated Sepharose (GE Healthcare) using standard protocols. Drug-antibody ratios were assessed before and after in vitro exposure using HIC methods and mass spectrometry.
DAR values for conjugates purified after plasma incubation were compared to DAR values prior to plasma treatment.

SMILES | DAR after plasma incubation for 3 to 4.5 days (attachment position L11B) | Conjugate stability (%) (attachment position L11B) | DAR (attachment position L11B) | DAR after plasma incubation for 3 to 4.5 days (attachment position H16) | Conjugate stability (%) (attachment position H16) | DAR (attachment position H16)
CC[C@H](C)[C@@H]([C@@H](CC(=O)N1CCC[C@H]1[C@H](OC)[C@@H](C)C(=O)N[C@@H](Cc1ccccc1)c1nccs1)OC)N(C)C(=O)[C@@H](NC(=O)C(C)(C)NC(=O)OCc1ccc(NC(=O)[C@H](CCCNC(N)=O)NC(=O)[C@@H](NC(=O)[C@H](CCCCN)NC(=O)C(C)(C)C)C(C)C)cc1)C(C)C [Example 2, N˜2˜-(2,2-Dimethylpropanoyl)-L-lysyl-L-valyl-N-{4-[(8S,11S,12R)-11-[(2S)-butan-2-yl]-12-(2-{(2S)-2-[(1R,2R)-1-methoxy-2-methyl-3-oxo-3-{[(1S)-2-phenyl-1-(1,3-thiazol-2-yl)ethyl]amino}propyl]pyrrolidin-1-yl}-2-oxoethyl)-5,5,10-trimethyl-3,6,9-trioxo-8-(propan-2-yl)-2,13-dioxa-4,7,10-triazatetradec-1-yl]phenyl}-N˜5˜-carbamoyl-L-ornithinamide] (Piv-KV[Cit][PABC][Aib]V[Dil][Dolaproine]-Doe) | 0 | 0% | 1.54 | – | – | –
CC[C@H](C)[C@@H]([C@@H](CC(=O)N1CCC[C@H]1[C@H](OC)[C@@H](C)C(=O)N[C@@H](Cc1ccccc1)c1nccs1)OC)N(C)C(=O)[C@@H](NC(=O)C(C)(C)NC(=O)OCc1ccc(NC(=O)[C@H](CCCNC(N)=O)NC(=O)[C@@H](NC(=O)[C@H](CCCCN)NC(=O)Cc2ccccc2)C(C)C)cc1)C(C)C [Example 3, N˜2˜-(Phenylacetyl)-L-lysyl-L-valyl-N-{4-[(8S,11S,12R)-11-[(2S)-butan-2-yl]-12-(2-{(2S)-2-[(1R,2R)-1-methoxy-2-methyl-3-oxo-3-{[(1S)-2-phenyl-1-(1,3-thiazol-2-yl)ethyl]amino}propyl]pyrrolidin-1-yl}-2-oxoethyl)-5,5,10-trimethyl-3,6,9-trioxo-8-(propan-2-yl)-2,13-dioxa-4,7,10-triazatetradec-1-yl]phenyl}-N˜5˜-carbamoyl-L-ornithinamide] (PhAc-KV[Cit][PABC][Aib]V[Dil][Dolaproine]-Doe) | 0 | 0% | 1.66 | – | – | –
CC[C@H](C)[C@@H]([C@@H](CC(=O)N1CCC[C@H]1[C@H](OC)[C@@H](C)C(=O)N[C@@H](Cc1ccccc1)c1nccs1)OC)N(C)C(=O)[C@@H](NC(=O)C(C)(C)NC(=O)OCc1ccc(NC(=O)[C@H](CCCNC(N)=O)NC(=O)[C@@H](NC(=O)[C@H](CCCCN)NC(=O)c2cnc[nH]2)C(C)C)cc1)C(C)C [Example 4, N˜2˜-(1H-Imidazol-5-ylcarbonyl)-L-lysyl-L-valyl-N-{4-[(8S,11S,12R)-11-[(2S)-butan-2-yl]-12-(2-{(2S)-2-[(1R,2R)-1-methoxy-2-methyl-3-oxo-3-{[(1S)-2-phenyl-1-(1,3-thiazol-2-yl)ethyl]amino}propyl]pyrrolidin-1-yl}-2-oxoethyl)-5,5,10-trimethyl-3,6,9-trioxo-8-(propan-2-yl)-2,13-dioxa-4,7,10-triazatetradec-1-yl]phenyl}-N˜5˜-carbamoyl-L-ornithinamide] (Imidazole4carbonyl-KV[Cit][PABC][Aib]V[Dil][Dolaproine]-Doe) | – | – | – | 1.89 | 100% | 1.84
CC[C@H](C)[C@@H]([C@@H](CC(=O)N1CCC[C@H]1[C@H](OC)[C@@H](C)C(=O)N[C@@H](Cc1ccccc1)c1nccs1)OC)N(C)C(=O)[C@@H](NC(=O)C(C)(C)NC(=O)OCc1ccc(NC(=O)[C@H](CCCNC(N)=O)NC(=O)[C@@H](NC(=O)[C@H](CCCCN)NC(=O)Cc2cnc[nH]2)C(C)C)cc1)C(C)C [Example 5, N˜2˜-(1H-Imidazol-5-ylacetyl)-L-lysyl-L-valyl-N-{4-[(8S,11S,12R)-11-[(2S)-butan-2-yl]-12-(2-{(2S)-2-[(1R,2R)-1-methoxy-2-methyl-3-oxo-3-{[(1S)-2-phenyl-1-(1,3-thiazol-2-yl)ethyl]amino}propyl]pyrrolidin-1-yl}-2-oxoethyl)-5,5,10-trimethyl-3,6,9-trioxo-8-(propan-2-yl)-2,13-dioxa-4,7,10-triazatetradec-1-yl]phenyl}-N˜5˜-carbamoyl-L-ornithinamide] ({Acetyl(2-(4-imidazolyl))}-KV[Cit][PABC][Aib]V[Dil][Dolaproine]-Doe) | – | – | – | 2.0 | 100% | 1.96
CC[C@H](C)[C@@H]([C@@H](CC(=O)N1CCC[C@H]1[C@H](OC)[C@@H](C)C(=O)N[C@@H](Cc1ccccc1)c1nccs1)OC)N(C)C(=O)[C@@H](NC(=O)C(C)(C)NC(=O)OCc1ccc(NC(=O)[C@H](CCCNC(N)=O)NC(=O)[C@@H](NC(=O)[C@H](CCCCN)NC(=O)C(C)C)C(C)C)cc1)C(C)C [Example 7, N˜2˜-(2-Methylpropanoyl)-L-lysyl-L-valyl-N-{4-[(8S,11S,12R)-11-[(2S)-butan-2-yl]-12-(2-{(2S)-2-[(1R,2R)-1-methoxy-2-methyl-3-oxo-3-{[(1S)-2-phenyl-1-(1,3-thiazol-2-yl)ethyl]amino}propyl]pyrrolidin-1-yl}-2-oxoethyl)-5,5,10-trimethyl-3,6,9-trioxo-8-(propan-2-yl)-2,13-dioxa-4,7,10-triazatetradec-1-yl]phenyl}-N˜5˜-carbamoyl-L-ornithinamide] (Isobutyryl-KV[Cit][PABC][Aib]V[Dil][Dolaproine]-Doe) | 0 | 0% | 1.51 | – | – | –
CC[C@H](C)[C@@H]([C@@H](CC(=O)N1CCC[C@H]1[C@H](OC)[C@@H](C)C(=O)N[C@@H](Cc1ccccc1)c1nccs1)OC)N(C)C(=O)[C@@H](NC(=O)C(C)(C)NC(=O)OCc1ccc(NC(=O)[C@H](CCCNC(N)=O)NC(=O)[C@@H](NC(=O)[C@H](CCCCN)NC(=O)CO)C(C)C)cc1)C(C)C [Example 25, N˜2˜-(hydroxyacetyl)-L-lysylvalyl-N-{4-[(8S,11S,12R)-11-[(2S)-butan-2-yl]-12-(2-{(2S)-2-[(1R,2R)-1-methoxy-2-methyl-3-oxo-3-{[(1S)-2-phenyl-1-(1,3-thiazol-2-yl)ethyl]amino}propyl]pyrrolidin-1-yl}-2-oxoethyl)-5,5,10-trimethyl-3,6,9-trioxo-8-(propan-2-yl)-2,13-dioxa-4,7,10-triazatetradec-1-yl]phenyl}-N˜5˜-carbamoyl-L-ornithinamide] (Glycolyl-KV[Cit][PABC][Aib]V[Dil][Dolaproine]-Doe) | – | 84% | 1.91 | – | – | –
CC[C@H](C)[C@@H]([C@@H](CC(=O)N1CCC[C@H]1[C@H](OC)[C@@H](C)C(=O)N[C@@H](Cc1ccccc1)c1nccs1)OC)N(C)C(=O)[C@@H](NC(=O)C(C)(C)NC(=O)OCc1ccc(NC(=O)[C@H](CCCNC(N)=O)NC(=O)[C@@H](NC(=O)[C@H](CCCCN)NC(=O)NC)C(C)C)cc1)C(C)C [Example 26, N˜2˜-(methylcarbamoyl)-L-lysylvalyl-N-{4-[(8S,11S,12R)-11-[(2S)-butan-2-yl]-12-(2-{(2S)-2-[(1R,2R)-1-methoxy-2-methyl-3-oxo-3-{[(1S)-2-phenyl-1-(1,3-thiazol-2-yl)ethyl]amino}propyl]pyrrolidin-1-yl}-2-oxoethyl)-5,5,10-trimethyl-3,6,9-trioxo-8-(propan-2-yl)-2,13-dioxa-4,7,10-triazatetradec-1-yl]phenyl}-N˜5˜-carbamoyl-L-ornithinamide] ({NHMe-CO}-KV[Cit][PABC][Aib]V[Dil][Dolaproine]-Doe) | 1.16 | 60% | 1.92 | – | – | –
CC[C@H](C)[C@@H]([C@@H](CC(=O)N1CCC[C@H]1[C@H](OC)[C@@H](C)C(=O)N[C@@H](Cc1ccccc1)c1nccs1)OC)N(C)C(=O)[C@@H](NC(=O)C(C)(C)NC(=O)OCc1ccc(NC(=O)[C@H](CCCNC(N)=O)NC(=O)[C@@H](NC(=O)[C@H](CCCCN)NC(=O)CNC)C(C)C)cc1)C(C)C [Example 27, N-methylglycyl-L-lysylvalyl-N-{4-[(8S,11S,12R)-11-[(2S)-butan-2-yl]-12-(2-{(2S)-2-[(1R,2R)-1-methoxy-2-methyl-3-oxo-3-{[(1S)-2-phenyl-1-(1,3-thiazol-2-yl)ethyl]amino}propyl]pyrrolidin-1-yl}-2-oxoethyl)-5,5,10-trimethyl-3,6,9-trioxo-8-(propan-2-yl)-2,13-dioxa-4,7,10-triazatetradec-1-yl]phenyl}-N˜5˜-carbamoyl-L-ornithinamide] (H-[Sar]KV[Cit][PABC][Aib]V[Dil][Dolaproine]-Doe) | 0.98 | 57% | 1.72 | – | – | –
CC[C@H](C)[C@@H]([C@@H](CC(=O)N1CCC[C@H]1[C@H](OC)[C@@H](C)C(=O)N[C@@H](Cc1ccccc1)c1nccs1)OC)N(C)C(=O)[C@@H](NC(=O)C(C)(C)NC(=O)OCc1ccc(NC(=O)[C@H](CCCNC(N)=O)NC(=O)[C@@H](NC(=O)[C@H](CCCCN)NC(=O)CN(C)C)C(C)C)cc1)C(C)C [Example 28, N,N-dimethylglycyl-L-lysylvalyl-N-{4-[(8S,11S,12R)-11-[(2S)-butan-2-yl]-12-(2-{(2S)-2-[(1R,2R)-1-methoxy-2-methyl-3-oxo-3-{[(1S)-2-phenyl-1-(1,3-thiazol-2-yl)ethyl]amino}propyl]pyrrolidin-1-yl}-2-oxoethyl)-5,5,10-trimethyl-3,6,9-trioxo-8-(propan-2-yl)-2,13-dioxa-4,7,10-triazatetradec-1-yl]phenyl}-N˜5˜-carbamoyl-L-ornithinamide] (Me2Gly-KV[Cit][PABC][Aib]V[Dil][Dolaproine]-Doe) | 0.07 | 4% | 1.83 | – | – | –
